Source: publication PMC6051995, “p38-mediated phosphorylation at T367 induces EZH2 cytoplasmic localization to promote breast cancer metastasis” (Nature Communications, 2018)

T1: Recombinant vinculin protein (UniProt P18206-2 1-1066)
T1 construct: vinculin, recombinant; The BLI methods describe EZH2 and p38α but say nothing of the vinculin protein
T1 sequence (looked up): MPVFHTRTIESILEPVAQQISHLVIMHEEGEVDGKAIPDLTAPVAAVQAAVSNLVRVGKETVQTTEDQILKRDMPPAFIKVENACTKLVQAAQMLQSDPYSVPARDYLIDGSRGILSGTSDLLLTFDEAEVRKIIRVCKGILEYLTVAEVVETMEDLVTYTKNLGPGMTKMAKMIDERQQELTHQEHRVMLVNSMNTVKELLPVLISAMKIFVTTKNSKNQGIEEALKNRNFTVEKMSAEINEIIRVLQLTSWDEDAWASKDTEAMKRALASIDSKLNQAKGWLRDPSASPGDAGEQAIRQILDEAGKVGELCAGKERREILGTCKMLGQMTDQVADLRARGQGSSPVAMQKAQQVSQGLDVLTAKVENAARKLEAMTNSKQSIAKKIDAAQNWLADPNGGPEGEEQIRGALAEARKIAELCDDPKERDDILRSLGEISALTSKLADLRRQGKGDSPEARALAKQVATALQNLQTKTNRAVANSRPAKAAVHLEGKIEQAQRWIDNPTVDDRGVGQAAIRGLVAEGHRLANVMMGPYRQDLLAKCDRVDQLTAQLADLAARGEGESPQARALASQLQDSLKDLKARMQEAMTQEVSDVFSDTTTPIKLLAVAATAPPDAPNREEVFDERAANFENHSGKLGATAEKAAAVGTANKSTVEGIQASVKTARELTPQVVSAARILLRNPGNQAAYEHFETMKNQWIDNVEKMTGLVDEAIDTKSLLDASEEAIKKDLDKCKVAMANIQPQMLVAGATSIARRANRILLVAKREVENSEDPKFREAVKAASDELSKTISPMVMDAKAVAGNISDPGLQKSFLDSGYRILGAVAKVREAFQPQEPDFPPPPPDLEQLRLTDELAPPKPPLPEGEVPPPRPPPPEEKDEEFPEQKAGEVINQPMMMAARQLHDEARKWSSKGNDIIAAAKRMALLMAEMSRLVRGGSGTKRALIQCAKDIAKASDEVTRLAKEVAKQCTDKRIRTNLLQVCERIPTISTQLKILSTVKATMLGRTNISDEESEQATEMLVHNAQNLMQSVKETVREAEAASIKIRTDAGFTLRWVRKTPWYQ


Assays:
[1] = molecular target: T1, Recombinant vinculin protein; assay: BLI; biotinylated GST-EZH2 immobilised on Super Streptavidin (SSA) biosensors; analyte in a concentration series; OctetRED96; 30 °C; HBS-P (10 mM HEPES pH 7.4, 150 mM NaCl, 0.005% tween-20); double referencing; kinetic fit, 1:1 binding model; details: both partners purified
[2] = molecular target: T1, Recombinant vinculin protein; assay: BLI; same experiment as a1 (EZH2 immobilised, 30 °C, HBS-P); steady state analysis of response against concentration; details: both partners purified
[3] = molecular target: T2, pEZH2(T367) (endogenous EZH2 phosphorylated at T367) (human (endogenous in MDA-MB-231), UniProt Q15910 1-746, phosphothreonine at 367); assay: co-IP; endogenous proteins from whole cell extracts of MDA-MB-231 cells; magnetic Dynabeads with antibody (EZH2, pEZH2 or vinculin); with or without doxycycline to induce MKK6EE and p38 activation; details: partners not purified
T2 construct: EZH2, endogenous, phosphorylated at T367 by p38; also called phosphorylated EZH2 (T367); source: endogenous, MDA-MB-231 (whole cell extracts; fixed cells for PLA)
T2 sequence (Q15910 whole entry): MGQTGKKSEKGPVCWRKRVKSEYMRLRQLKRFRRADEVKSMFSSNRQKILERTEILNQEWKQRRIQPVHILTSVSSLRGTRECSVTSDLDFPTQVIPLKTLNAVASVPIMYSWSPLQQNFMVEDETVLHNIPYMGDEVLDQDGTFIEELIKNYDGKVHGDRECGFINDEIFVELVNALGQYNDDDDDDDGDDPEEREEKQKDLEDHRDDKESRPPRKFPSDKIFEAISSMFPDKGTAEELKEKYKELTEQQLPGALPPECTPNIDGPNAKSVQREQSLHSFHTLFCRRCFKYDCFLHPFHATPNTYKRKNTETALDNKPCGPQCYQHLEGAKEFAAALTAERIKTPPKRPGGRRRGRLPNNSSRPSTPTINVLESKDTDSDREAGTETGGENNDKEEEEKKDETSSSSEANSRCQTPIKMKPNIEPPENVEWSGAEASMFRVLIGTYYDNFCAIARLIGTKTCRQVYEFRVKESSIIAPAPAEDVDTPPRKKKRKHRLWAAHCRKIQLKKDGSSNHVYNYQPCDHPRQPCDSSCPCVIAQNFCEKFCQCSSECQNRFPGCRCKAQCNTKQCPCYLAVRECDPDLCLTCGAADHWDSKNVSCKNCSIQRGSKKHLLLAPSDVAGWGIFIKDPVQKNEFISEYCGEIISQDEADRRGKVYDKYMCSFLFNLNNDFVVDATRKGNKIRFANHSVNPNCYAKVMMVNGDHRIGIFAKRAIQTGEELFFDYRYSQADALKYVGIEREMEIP

Kd [1] | koff [1] | kon [1] | Kd [2] | fold increase of binding on p38 activation against uninduced controls [3] | Binder
15 nM | 0.00385 s⁻¹ | 294000 M⁻¹ s⁻¹ | 42 nM |  | Recombinant EZH2 (GST-EZH2 aa 2-end) (natural protein, biotin (Sulpho-NHS-LC-biotin, protein and biotin mixed 1:1 molar ratio), EZH2 (Enhancer of zeste homolog 2), aa 2-end; GST-EZH2 MW = 114 kDa; The vendor is printed only as 'Bioscience'; also called Enhancer of zeste homolog 2; immobilized EZH2; source: bought: Bioscience (recombinant)) not shown
 |  |  |  | ~10 fold | vinculin (endogenous) (natural protein, human (endogenous in MDA-MB-231), UniProt P18206-2 1-1066, looked up, vinculin, endogenous; source: endogenous, MDA-MB-231 (whole cell lysate; fixed cells for PLA)) MPVFHTRTIESILEPVAQQISHLVIMHEEGEVDGKAIPDLTAPVAAVQAAVSNLVRVGKETVQTTEDQILKRDMPPAFIKVENACTKLVQAAQMLQSDPYSVPARDYLIDGSRGILSGTSDLLLTFDEAEVRKIIRVCKGILEYLTVAEVVETMEDLVTYTKNLGPGMTKMAKMIDERQQELTHQEHRVMLVNSMNTVKELLPVLISAMKIFVTTKNSKNQGIEEALKNRNFTVEKMSAEINEIIRVLQLTSWDEDAWASKDTEAMKRALASIDSKLNQAKGWLRDPSASPGDAGEQAIRQILDEAGKVGELCAGKERREILGTCKMLGQMTDQVADLRARGQGSSPVAMQKAQQVSQGLDVLTAKVENAARKLEAMTNSKQSIAKKIDAAQNWLADPNGGPEGEEQIRGALAEARKIAELCDDPKERDDILRSLGEISALTSKLADLRRQGKGDSPEARALAKQVATALQNLQTKTNRAVANSRPAKAAVHLEGKIEQAQRWIDNPTVDDRGVGQAAIRGLVAEGHRLANVMMGPYRQDLLAKCDRVDQLTAQLADLAARGEGESPQARALASQLQDSLKDLKARMQEAMTQEVSDVFSDTTTPIKLLAVAATAPPDAPNREEVFDERAANFENHSGKLGATAEKAAAVGTANKSTVEGIQASVKTARELTPQVVSAARILLRNPGNQAAYEHFETMKNQWIDNVEKMTGLVDEAIDTKSLLDASEEAIKKDLDKCKVAMANIQPQMLVAGATSIARRANRILLVAKREVENSEDPKFREAVKAASDELSKTISPMVMDAKAVAGNISDPGLQKSFLDSGYRILGAVAKVREAFQPQEPDFPPPPPDLEQLRLTDELAPPKPPLPEGEVPPPRPPPPEEKDEEFPEQKAGEVINQPMMMAARQLHDEARKWSSKGNDIIAAAKRMALLMAEMSRLVRGGSGTKRALIQCAKDIAKASDEVTRLAKEVAKQCTDKRIRTNLLQVCERIPTISTQLKILSTVKATMLGRTNISDEESEQATEMLVHNAQNLMQSVKETVREAEAASIKIRTDAGFTLRWVRKTPWYQ
